Reference: the supplement of paper PMC12636428

System: Saccharomyces cerevisiae
Assay: transcriptional activation domain activity (GFP:mCherry ratio, weighted mean of sorted bins, harmonized to initial dataset scale) (arbitrary fluorescence ratio units); higher = stronger transcriptional activation
Settings: beta-estradiol 1 µM; induction time 4 h
In short: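 In diploid yeast carrying a GFP reporter, barcoded protein tiles fused to an estradiol-inducible synthetic transcription factor were integrated at the URA3 locus. Cultures diluted 1:5 into SC with 1 uM beta-estradiol were kept at 30 °C for 4 hours, then sorted by GFP:mCherry ratio into 8 bins before barcode sequencing. Tiles with under 50 reads were excluded. The activation activity reported here is the read-weighted mean of bin median fluorescence, averaged across barcodes and linearly rescaled to the initial dataset.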

Row | Sequence | transcriptional activation domain activity
1 | TAVLMQLINLTVFICLASFGSLVFATWLPLIFQYYAIHLRDLLLHDASLIVNW | 39100
2 | IQDLVFSIIGWFCFGGYTGYNIIQYVNMFGFAEWRRTLPVLYQLMYFNVWMSL | 62900
3 | PGLILVYSHLNLLLRNHADLEMIYIIGPGHGAPAALAALWLEGSLERFYPGEY | 31000
4 | VPPRSLCFLPSFSILTYILLIFSHLAVCPRPGPPSSSPVSIVLLLFFLRPYLL | 67500
5 | KQTAAQDSDEEGGGGKLKSKKEKEKEKKEREKQRKKEQAAKKKTAAPAPAKPE | 24400
6 | MAPTKAVAPAPAAAADGTVKRGRGRPPKDPSERKPKPEPSGRPRGRPKGSGGV | 33400
7 | KGLNGPKKEDGGDGESRKRGRPEEDEEERKEGGGGGRRARRRERLQGAAGGGS | 18600
8 | ILCASLHLLGHLPFRFCDVVLLFICHMFQELGRFDLIPGPVAHLTLRHSIVAA | 63500
9 | GEEGKAEEAAGEEGKAEAEAGAESEKSAEGEGEASAEEGASGEEAAGEKAAGE | 26800
10 | VYILVSYFLLGPRCLILIASTFLLSYHSSWSIVTRRVLWRFKVVRLIFFYLTG | 61700
11 | GCRKDQRARRRRSPALANRPEMKGVCLKTGITKPKKPNSGERKTARIRLSSGR | 38900
12 | SWFIHFYILSLSCTVFWAVQFVIDGTVLEVIIKNQLARCTSSMTLSQVLLAWF | 50300
13 | SWFIYSYDKEWIFLWHIPFPYPPIRTPSIPWVLYGLSVRFWSFISLLICNFFC | 63300
14 | YFVLLPPTFILLAFPLLVWEFCWLSSSDFLCLLSMGFLFISLSFFFFFFLGNW | 40400
15 | MSLLWIYFLSFFPFFCQNLTLLCFYAHIWTLRITPTFVLAFHLVYPLIIHLPV | 27100
16 | MLLTLLLLYILRRCAHTSYIFFSHSGFDFGHLIWGWVSCRLLTFWFLLYSSLL | 33100
17 | MGLPYFWFYKHTCFSVNYVSSLFVLFFFYFLVGVVGYVTMGLVIFFLFFFLFF | 70300
18 | MGLKGLLRSTIYVSSLVWLGWVVNLGQFLLFPFYSVTLKLSYNVNACIISVLV | 68500
19 | EKDKGEPADGAAAPVVKRKRGRPPNKDRNKPPPAPAPAPPPAGASASTPASRL | 33400
20 | VKKHYKLYYLDPGRTREFIAVSWFEVDILLVRWCSTTEYYTMTVFMTSLKKLN | 50000
21 | FLLAIRVSNMDLLMIGIMLTLFVRNVIVSTDYIRRGRVRYKALFYVLLCKYYR | 49600

Row | Sequence | transcriptional activation domain activity
22 | EESLKHHEGINMVWRKFQSIFRIIGGIIYYEPIYRAFVRHVLHHLHLDNVLWV | 64600
23 | MFKGTLLLVFFHYGWALFLDYCLWYIMISLCFWYRVCLPVLLLGFHVCCHLWC | 48500
24 | GQHEGLDKLREYHEHVLDRILFALLLRKRQKPVMKLLEEIFTLVLKFSKYSSA | 59400
25 | CDAGILLCLVCYLSSKLIYLFLVEKVFIIRGNRQRWTDKLFLFNMFGMLLPYC | 51600
26 | IISARDAGNGEEAAAQNVLNCFEYQFPNLQTIQSLVHEQTLLSQLASSATPHS | 75200
27 | IGLQVLLGWSYVMINPLAIYSSPYLILFSFSSLVYLVLVNVLTLPSSLPFFHP | 87600
28 | GRTLSRYEPTNVCVVLILIWLGIYHYFLQVLQVRTHATARKIVLLYGWYTLRI | 53400
29 | MADEHAAHRRKRARLACLACNARRVKCNVAECRPCHNCAAANVPCETRESRRG | 38300
30 | ELGAIEESKLCIVLLGTFRLLSFDCRTFAKYVRPLSLERLFNHTSRIVRLLAI | 44000
31 | TQATIVGDFFVCLMDVAGHDLAILLINWRAQTGTWLIFDSLEPLMWPHRITLV | 40300
32 | FGLLIAGWVCFFFFLSPLFPLFPLFPLFFFFFLLVGSPVSVYLWLGFLVWFGL | 32800
33 | LFLLFTFPLLGIFDTCFLTSMLFMALCFLFILLLETSFFFFFSLHPNFISWPY | 62600
34 | RLILILSLLVCWAAAIIDCVFVIIAGVTGVLQPQSRYLVLLLPMLFTNFLATL | 57300
35 | AAAKAAPAIEEEPQEEQPEEPDKAAAPKKRGRKRKSSGVGAATAAAAAVPRGP | 9830
36 | WIQCTIPGYVSNFAYGLASGFTVTLNTAVLMEIVFHSKSYRILILSLFTTLYV | 61400
37 | MDNTTDLYNYLVDMGLKFLLFWNMVNCKFCHLCLLMPFDITYIIFIFILLLEF | 70300
38 | DCSSILFSPLTTNTNNEFEGESDDFVHSPYLNSEADFSQILSSAPPVHHDPNE | 72800
39 | AVRLLSTKKISMSQANIGQTYFAHYCLSLLRLARYALSTMIKMFGPVYGWWLF | 64300
40 | PLEYFDIKALSALIVFDEFPNYIIGLLLQSYPELVHGTFMPYIECMLFTMNPL | 61800
41 | KLFFNLSILTLCAIMTLSVVVAFLFVTGCDPFYGYRGILFGFRILLTDIFSNM | 31400
42 | MTLITIIDLESFIFEDCIDLILFSQFLDSFQHSAVLTAYINWYTNADWWRSIV | 66900

Row | Sequence | transcriptional activation domain activity
43 | QQQQQQQQQQQQQQQQQSLDTLLHHYQSLLSKSDNAIAFDDNVSNSADHNGSN | 22600
44 | PNRRSMGKQDPYCAARLGKEAKKTATDRRGGQTPKWDQELRFTVHDSPDYHQL | 64200
45 | SSATDSNPNTNLEDSLFFDHDLLSSSITNTNNGQGSNNGRQASKDDTLNLLDT | 37900
46 | KVAYRNPAADSEGWRRWGNDEARHGTLGVEEMERRIEALRKAKVGGGMVKVGF | 35500
47 | VAEDLFERVRLDWLILFDLRMWKKVRCDLRSLYISTVVTIPEFKRVLGLRFAG | 37300
48 | NTVWLILNDITIGIAFGTFLCENHLILAAYVNYTIEKLLIKEIQWILGWLDSW | 84200
49 | DDKPAEKKEAAAAPKKEEAKKEEAKPAEKKEEPKKEAATAVPKATEKKPATAA | 25900
50 | FKCCAVAFPIVCFATPYTALIQRPLVQQAAMFGIMIVKCFAVIFAFPCSIILL | 81600
51 | MYCFIILYMYILLLFFSRSVYFSLFFFFFCLHFYSIFFFFICSLFIYLFIYLF | 63500
52 | KTQDESKPADGASTEQPAKKKRKRKQKRAQDGEGGEGAAAVGGGGGGEETQKA | 33200
53 | MYYIVIYAFLYGIKYTHWIYFLSNNLVFWFLLLHFRHSHYGSLSYRYIIDHLL | 62500
54 | VLYSSLITIFTAFYWNVASTSSVQILALLLPYTHPNIAHASTIRPFLIYALFT | 66700
55 | KAAPAQDGAAAGERNGAEAAEAGEEEEEAEGEAAAEPGAEAAEKPAPKPAAAA | 42100
56 | LNILTSVWAVPVVITLIQALLVMRVCMLFCFNLRVTLCLWALLFASATVSVVL | 51200
57 | MWLLHFSFLRVLPLFLLMLRCLLLAICIVTYINGPTLVFSHPLITIYSLTLLA | 56200
58 | GDEKKRNRERSREGGHRERSRSPDRERRSRRKRSHSRDRSSTRRRHKRHRSRS | 30400
59 | MPLRLRCNCILFYLLFFPLFFFNSTCDFSILLVIFFYSTFSLDFSSFLLFFFF | 55500
60 | INPFFGFLPFFFFFLPHLLLHYLALFFYYYFWFVFFSVPYSCPLVFYLLVFFL | 55200
61 | MPPVAKQKRSAADRAKGASRAKSGCYTCRIRRKKCDEERDEHDHCRTCTRLRL | 23700
62 | RSLLWQLSVWSFIKLMILMLFGYRMEAISILGREVMLPRGLIGLGYDSIDHCG | 47800
63 | GSKTRSTTSRDRSVRNDDKKSTTSGRRSVVSGSKEERRRRSSKKSVPAASETA | 34600

Row | Sequence | transcriptional activation domain activity
64 | MPSAYHLGITPFGVHQWDINLRTLQRYLFFLYCCWIIWGILVLLLKVIILLQY | 39700
65 | MGFLFLLCVLVVWVFFRAWFFRFLFSLVFLFWYFFIYFLWPWYGGVGRGLHSC | 36100
66 | MDISFFMLFVFDDFFLYSYFFFPSPRPLSNDATLIHIVCILFIILVGLTIVLL | 36800
67 | SFMKVLFLLTRYIPFLSTPLDLYYLLAPNMTFRTCLVTFMISRWLLCAGIVCA | 56200
68 | SKEKLSAVENSHAIKLEIILEGIGSIMLSHPNDMQLLSRVVRLLVRVAIQFRR | 56500
69 | VLYGRLRVKAQLLECALWNISAWLSLPDVERKSYTMLFTTLGGLYDMTCRIYL | 53000
70 | NKDGNGDGGEGKDKDEENRSGNRDGKRERGRKEDRERVAGSSGGGAKGLKRKR | 42600
71 | VPRLKSPVYCVCLGSIILYSICLVLLVIYRVALIRESDGVCLIGFARGGSLPL | 31200
72 | QKRGLETHHRRSGFWAALRRAEKGKSWVFLFFFFLFFPFFSFFYFFLLFLFLF | 21800
73 | KRKDAAKKKSEREWKDRVKGVEKAGRDRQKRREENIRKRKEEKGRGKGKKGKG | 6830
74 | KLKEKNKKRKRGEEVSDDEEEGPKDDEPKEKKAKKEEEHGVWVGNLAFATSQD | 36700
75 | KLLCVGRPFRASSTEVVVTMALLSMLRHLPTTRWKDSLKLLAWVLEQYIYRFT | 51000
76 | PNIILPLNPCRSGEFCELYPSAANLWAMFLHLILFCMQLPFILSIPFWLLFPV | 52900
77 | DLQRHLLKDHVSQDFKHPMEPLACNWEDCDFLGDDTCSIVNHINCQHGINFDI | 53200
78 | KTVEEIWRISQGAVEGEEKGREREKAGLCVRACGASWHSQVLCAALVEVVGLS | 41700
79 | LGSCFLLSLVHPFFLLYYLYLRLLSLCFLYLRFVFFFCSPMSFFILLSIMSFL | 60100
80 | RLFAYYRSGWQVSNADVVQLPSWLFTLFLCAVCYLCMTIWYTYLTFQIHCVYW | 66300
81 | KHERDDEKERKHRKHDKPSKDKDGEDDDGEGRRHKKHRKHKERGSDDEDEHRK | 22500
82 | KARKRTRERKKEKEGRARTKGEGDRYEGRKFEISGTVEVKRERCEGTRRTKPK | 9070
83 | MFFCYLTVILSMDAFYYYQSHLNWTSTQLYVTWFNACFRNGLIRIIYFVFWWL | 76300
